Test results from US20100136005A1 (Genentech, published 2010).
Each block holds one binder with its values, some of them ahead of it.

Legend:
human CD11a [1] = target: T1, human CD11a (human, UniProt P20701 26-1170); test: cell-based or functional assay
human CD11a [2] = target: T1, human CD11a; test: cell-based or functional assay; remark: listed apart in the source
rhesus CD11a [3] = target: T2, rhesus CD11a (rhesus, UniProt H9Z8N3 26-1169); test: cell binding, rhesus against human CD11a
T2 construct: whole, on cells; also called rhCD11a
T2 sequence: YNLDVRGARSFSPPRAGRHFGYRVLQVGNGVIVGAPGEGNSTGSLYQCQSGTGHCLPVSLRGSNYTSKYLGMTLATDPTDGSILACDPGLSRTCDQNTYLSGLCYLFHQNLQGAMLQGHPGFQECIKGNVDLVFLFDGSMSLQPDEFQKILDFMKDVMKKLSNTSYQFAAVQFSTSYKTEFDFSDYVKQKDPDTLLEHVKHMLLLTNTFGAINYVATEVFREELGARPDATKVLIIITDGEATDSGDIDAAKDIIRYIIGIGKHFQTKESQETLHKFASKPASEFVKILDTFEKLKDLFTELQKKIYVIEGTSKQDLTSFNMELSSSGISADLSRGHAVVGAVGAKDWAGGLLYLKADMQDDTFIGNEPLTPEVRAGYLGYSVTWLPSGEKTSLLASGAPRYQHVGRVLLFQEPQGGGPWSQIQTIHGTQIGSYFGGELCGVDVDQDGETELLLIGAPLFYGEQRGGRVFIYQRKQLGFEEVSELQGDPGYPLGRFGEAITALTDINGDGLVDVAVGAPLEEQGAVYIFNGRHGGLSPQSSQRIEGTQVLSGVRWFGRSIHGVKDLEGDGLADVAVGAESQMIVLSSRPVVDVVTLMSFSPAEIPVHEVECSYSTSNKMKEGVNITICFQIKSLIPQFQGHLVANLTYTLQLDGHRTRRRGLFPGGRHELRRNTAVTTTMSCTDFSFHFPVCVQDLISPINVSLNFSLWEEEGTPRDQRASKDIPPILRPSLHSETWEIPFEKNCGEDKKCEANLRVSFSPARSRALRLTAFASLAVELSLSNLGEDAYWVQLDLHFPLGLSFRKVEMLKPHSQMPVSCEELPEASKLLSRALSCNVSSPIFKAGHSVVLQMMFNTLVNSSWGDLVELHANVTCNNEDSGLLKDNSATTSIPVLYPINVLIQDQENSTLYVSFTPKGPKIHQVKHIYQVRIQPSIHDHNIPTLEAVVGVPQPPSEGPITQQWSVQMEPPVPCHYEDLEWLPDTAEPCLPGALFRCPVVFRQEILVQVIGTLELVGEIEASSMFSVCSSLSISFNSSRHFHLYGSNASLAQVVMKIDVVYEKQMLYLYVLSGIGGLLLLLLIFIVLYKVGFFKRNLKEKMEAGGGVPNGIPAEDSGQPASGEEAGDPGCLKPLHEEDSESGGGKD

rhesus CD11a [4] = target: T2, rhesus CD11a; test: rhesus EC50 of the variant against human EC50 of HuIgG1; end assigned by the printed EC50s
rhesus CD11a [5] = target: T2, rhesus CD11a; test: binding to rhesus peripheral blood lymphocytes; end assigned by the printed EC50s
rhesus CD11a [6] = target: T2, rhesus CD11a; test: binding to rhesus peripheral blood lymphocytes; ratio to HuIgG1 EC50 (45.6 nM)
rhesus CD11a [7] = target: T2, rhesus CD11a; test: cell-based or functional assay
[8] = target: T3, rhesus-human chimeric CD11a (human (I-domain mutated to rhesus), UniProt P20701 26-1170); test: cell-based or functional assay
T3 sequence (looked up): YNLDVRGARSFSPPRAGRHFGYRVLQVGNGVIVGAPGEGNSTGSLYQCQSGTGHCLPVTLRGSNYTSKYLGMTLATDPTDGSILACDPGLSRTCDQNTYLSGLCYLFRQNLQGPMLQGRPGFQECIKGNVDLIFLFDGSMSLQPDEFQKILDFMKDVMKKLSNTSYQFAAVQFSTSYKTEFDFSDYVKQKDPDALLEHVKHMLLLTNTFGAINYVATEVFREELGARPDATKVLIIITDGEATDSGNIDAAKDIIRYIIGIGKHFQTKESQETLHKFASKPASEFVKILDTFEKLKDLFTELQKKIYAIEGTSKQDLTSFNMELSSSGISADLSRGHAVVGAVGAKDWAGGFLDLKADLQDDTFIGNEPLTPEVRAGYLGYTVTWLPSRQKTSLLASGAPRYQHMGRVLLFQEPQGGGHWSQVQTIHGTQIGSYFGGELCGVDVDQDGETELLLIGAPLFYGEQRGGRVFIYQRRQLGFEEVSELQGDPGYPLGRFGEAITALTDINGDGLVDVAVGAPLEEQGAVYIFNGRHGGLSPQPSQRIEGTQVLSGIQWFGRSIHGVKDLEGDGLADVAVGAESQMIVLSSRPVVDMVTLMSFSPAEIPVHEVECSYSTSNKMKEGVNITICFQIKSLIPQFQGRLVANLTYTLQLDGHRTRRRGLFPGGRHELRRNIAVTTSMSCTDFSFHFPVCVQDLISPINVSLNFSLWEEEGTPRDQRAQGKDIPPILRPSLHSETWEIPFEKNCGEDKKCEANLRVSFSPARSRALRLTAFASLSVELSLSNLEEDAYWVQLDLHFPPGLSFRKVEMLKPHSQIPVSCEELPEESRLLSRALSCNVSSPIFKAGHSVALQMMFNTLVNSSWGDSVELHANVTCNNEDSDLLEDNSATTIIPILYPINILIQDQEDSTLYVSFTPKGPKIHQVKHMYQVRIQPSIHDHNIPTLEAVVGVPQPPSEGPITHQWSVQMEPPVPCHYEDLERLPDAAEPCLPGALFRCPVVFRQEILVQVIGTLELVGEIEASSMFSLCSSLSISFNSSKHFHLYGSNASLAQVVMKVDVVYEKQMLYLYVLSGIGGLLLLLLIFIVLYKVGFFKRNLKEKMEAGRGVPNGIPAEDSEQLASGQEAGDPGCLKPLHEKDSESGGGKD

rhesus CD11a [9] = target: T2, rhesus CD11a; test: saturation binding, Kd(app) compared
Experimental: Antibody affinities were determined by saturation binding using either peripheral blood mononuclear cells (murine MHM24 and HuIgG1) or rhesus leukocytes (MHM23, RhIgG1). In each assay, a radiolabeled antibody was serially diluted in HBSS-0.2% gelatin in quadruplicate. Nonspecific binding was determined by the addition of 500 nM final concentration of homologous unlabeled antibody in duplicate through the serial dilution. Human lymphocytes or rhesus leukocytes were added to the plates in a volume of 170 μl per well. Plates were incubated for 2 hr at room temperature on an orbital plate shaker. After incubation, cells were harvested using a SKATRON™ cell harvester (Lier, Norway) and washed 10 times with PBS containing 0.25% gelatin and 0.1% sodium azide. Samples were then counted for 1 min in an LBK Wallac GammaMaster gamma counter (Gaithersburg, Md.). Data was transformed from counts per minute to nanomolarity and four-parameter curve-fitting of saturation plots (bound versus total) was then performed to determine Kd (app) values.

rhesus CD11a [10] = target: T2, rhesus CD11a; test: cell-based or functional assay; remark: listed apart in the source
[11] = target: T3, rhesus-human chimeric CD11a; test: cell-based or functional assay; remark: listed apart in the source
rhesus CD11a [12] = target: T2, rhesus CD11a; test: cell-based or functional assay; remark: listed apart in the source

B1: humanized MHM24 HuIgG1 (antibody, V domains shown)
VH: EVQLVESGGGLVQPGGSLRLSCAASGYSFTGHWMNWVRQAPGKGLEWVGMIHPSDSETRYNQKFKDRFTISVDKSKNTLYLQMNSLRAEDTAVYYCARGIYFYGTTYFDYWGQGTLVTVSS
VL: DIQMTQSPSSLSASVGDRVTITCRASKTISKYLAWYQQKPGKAPKLLIYSGSTLQSGVPSRFSGSGSGTDFTLTISSLQPEDFATYYCQQHNEYPLTFGQGTKVEIKR
notes: F(ab)-8 VL and VH fused to human constant light and IgG1 heavy chains; also called huMHM24
- IC50 Value (nM), Jurkat:HuK cell adhesion (human CD11a [1]): 0.13 nM
- IC50 Value (nM), human mixed lymphocyte response (human CD11a [2]): 0.38 nM
- fold reduction in binding (rhesus against human CD11a) (rhesus CD11a [3]): ~1000 fold

B2: H2C11 (antibody, V domains shown)
VH: EVQLVESGGGLVQPGGSLRLSCAASGYSFTGHWMNWVRQAPGKGLEWVGMIAPASSNTRYNQKFKDRFTISVDKSKNTLYLQMNSLRAEDTAVYYCARGIYFYGTTYFDYWGQGTLVTVSS
VL: DIQMTQSPSSLSASVGDRVTITCRASKTISKYLAWYQQKPGKAPKLLIYSGSTLQSGVPSRFSGSGSGTDFTLTISSLQPEDFATYYCQQHNEYPLTFGQGTKVEIKR
- fold weaker than the EC50 of HuIgG1 for human CD11a (rhesus CD11a [4]): 3 to 5 fold
- fold improvement over the EC50 of HuIgG1 for rhesus CD11a (rhesus CD11a [5]): 240 to 415 fold

Results, then the binder that gave them:

- Var.EC50/HuIgG1 EC50 (rhesus CD11a [6]): 13.3 ratio
B3: SerL52Ala (antibody, human IgG1, V domains shown)
VH: EVQLVESGGGLVQPGGSLRLSCAASGYSFTGHWMNWVRQAPGKGLEWVGMIHPSDSETRYNQKFKDRFTISVDKSKNTLYLQMNSLRAEDTAVYYCARGIYFYGTTYFDYWGQGTLVTVSS
VL: DIQMTQSPSSLSASVGDRVTITCRASKTISKYLAWYQQKPGKAPKLLIYSGATLQSGVPSRFSGSGSGTDFTLTISSLQPEDFATYYCQQHNEYPLTFGQGTKVEIKR
notes: HuIgG1 variant (human IgG1)

- IC50 Value (nM), RhLy:HuICAM cell adhesion (rhesus CD11a [7]): 5.3 nM
- IC50 Value (nM), RhLy:HuK cell adhesion (rhesus CD11a [7]): 119 nM
- IC50 Value (nM), Rh/HuCD11a:HuK cell adhesion [8]: 4.9 nM
- fold down from the Kd of HuIgG1 for human CD11a (rhesus CD11a [9]): ~26 fold
- fold less efficacious than MHM23, RhLy:HuICAM adhesion (rhesus CD11a [10]): 4 fold
- fold less efficacious than MHM23, RhLy:HuK adhesion (rhesus CD11a [10]): 74 fold
- fold down from MHM23, Rh/HuCD11a:HuK adhesion [11]: 4 fold
- IC50 Value (nM), rhesus mixed lymphocyte response (rhesus CD11a [12]): 23.4 nM
- fold weaker than the EC50 of HuIgG1 for human CD11a (rhesus CD11a [4]): 3 to 5 fold
- fold improvement over the EC50 of HuIgG1 for rhesus CD11a (rhesus CD11a [5]): 240 to 415 fold
B4: rhesus-binding MHM24 RhIgG1 (antibody, V domains shown)
VH: EVQLVESGGGLVQPGGSLRLSCAASGYSFTGHWMNWVRQAPGKGLEWVGMIAPASSSTRYNQKFKDRFTISVDKSKNTLYLQMNSLRAEDTAVYYCARGIYFYGTTYFDYWGQGTLVTVSS
VL: DIQMTQSPSSLSASVGDRVTITCRASKTISKYLAWYQQKPGKAPKLLIYSGSTLQSGVPSRFSGSGSGTDFTLTISSLQPEDFATYYCQQHNEYPLTFGQGTKVEIKR
notes: HuIgG1 variant, human IgG1; also called H2C12; rhesusized antibody
